# Measured values: patent US20160271244A1
# Values joined by “and” are separate entries in the source; they are usually repeats but may differ in a detail not shown here. Identical values can stand only once.
substance,measurement,setting,value
4E10 (antibody),Kd,JRFL APA DEG,140 nM and 150 nM and 180 nM
same,koff,JRFL APA DEG,0.001 s⁻¹
same,kon,JRFL APA DEG,6800 M⁻¹ s⁻¹ and 6600 M⁻¹ s⁻¹ and 5500 M⁻¹ s⁻¹
same,Kd,JRFL APA,1380 nM
same,koff,JRFL APA,0.001 s⁻¹
same,kon,JRFL APA,720 M⁻¹ s⁻¹
